The source of these data is paper PMC4446614.

In this experiment the target is His-sumo-TBC1D15 (shark TBC1D15 from Chiloscyllium plagiosum) (Chiloscyllium plagiosum).

In the case of “MBP-Rab7a-WT (from UniProt P51149 1-207) (natural protein)”, the release of inorganic phosphate (Pi) by GTP hydrolysis, A360 read every 5 min (EnzChek Phosphate Assay Kit; Rab7 700 nM, TBC1D15 300 nM, 22 °C); Rab or TBC1D15 alone as the blank came to 0.4 A360.
